Values of other authors as cited in article PMC2994893.

Biological target: Lck phospho-Tyr505 motif pTyr505 motif (Homo sapiens) (UniProt P06239)

Kd: 300 nM
Substance: Lck SH2 (from UniProt P06239)
